# Experimental data taken from publication PMC12354568.
# “And” between values parts separate entries of the source, which are not always exact repeats. Equal entries are not always repeated.
# Molecular target: human neonatal Fc receptor (FcRn), His-tagged (human) (UniProt P55899)
# Assay: BLI
# Sequence of UniProt P55899 (P55899 24-297, chain 1 of 2): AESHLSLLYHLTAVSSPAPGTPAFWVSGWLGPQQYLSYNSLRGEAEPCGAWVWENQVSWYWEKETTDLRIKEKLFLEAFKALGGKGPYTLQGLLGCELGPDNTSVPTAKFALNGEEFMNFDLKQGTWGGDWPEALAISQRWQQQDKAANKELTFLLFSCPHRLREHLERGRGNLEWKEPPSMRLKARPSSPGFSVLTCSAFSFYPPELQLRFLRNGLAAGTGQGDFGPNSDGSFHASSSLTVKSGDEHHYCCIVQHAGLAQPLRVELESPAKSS
# Sequence of UniProt P55899 (P61769 21-119, chain 2 of 2, further chain): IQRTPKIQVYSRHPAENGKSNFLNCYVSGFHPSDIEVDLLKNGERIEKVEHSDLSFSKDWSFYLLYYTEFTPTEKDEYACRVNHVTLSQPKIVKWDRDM
row,Substance,Kd
1,"RGB-19 tocilizumab (proposed biosimilar, IV and SC drug products) (antibody)",26.5 to 30.4 nM and 26.3 to 31.7 nM
2,"RoActemra^® tocilizumab (EU-sourced reference medicinal product, IV and SC) (antibody)",19.2 to 34.5 nM and 17.6 to 35.4 nM
